The record followed here is patent US20200299400A1 (published 2020).

The target in test [1] is T1, hCD40-Fc (human, UniProt P25942 21-193).
T1 construct: Immobilized on the sensor chip; construct not described; not shown: Fc part of hCD40-Fc not described
In words: SPR; dAb-Fc analyte on immobilized hCD40-Fc; avidity-influenced KDapparent. (In general: SPR reads the build-up and loss of mass on a sensor chip optically.)

The target of test [2] is T2, human CD73 on human cell lines (human, UniProt P21589 27-549).
T2 sequence (looked up): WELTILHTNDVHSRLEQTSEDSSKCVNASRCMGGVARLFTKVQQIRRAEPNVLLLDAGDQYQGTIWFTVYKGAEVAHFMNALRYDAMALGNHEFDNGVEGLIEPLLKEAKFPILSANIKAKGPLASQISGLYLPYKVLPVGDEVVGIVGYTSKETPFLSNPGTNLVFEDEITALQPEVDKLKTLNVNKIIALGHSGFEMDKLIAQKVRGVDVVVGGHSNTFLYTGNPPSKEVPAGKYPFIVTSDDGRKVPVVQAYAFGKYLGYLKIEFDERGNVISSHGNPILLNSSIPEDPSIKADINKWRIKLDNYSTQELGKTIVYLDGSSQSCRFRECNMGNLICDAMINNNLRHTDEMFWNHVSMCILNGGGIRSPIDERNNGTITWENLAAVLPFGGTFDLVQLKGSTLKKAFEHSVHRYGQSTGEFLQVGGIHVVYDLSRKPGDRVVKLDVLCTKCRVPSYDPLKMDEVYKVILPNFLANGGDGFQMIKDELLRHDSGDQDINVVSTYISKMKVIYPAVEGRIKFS
Briefly: cell-based or functional assay.

T1 sequence (P25942 21-193): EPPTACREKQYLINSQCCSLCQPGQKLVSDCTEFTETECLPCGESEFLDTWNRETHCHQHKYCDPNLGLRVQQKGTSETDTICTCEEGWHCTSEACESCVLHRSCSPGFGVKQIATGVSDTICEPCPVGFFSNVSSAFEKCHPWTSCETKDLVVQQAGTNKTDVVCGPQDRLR

B1: 3h56-269-IgG1.3f (Fc fusion)
chain: EVQLLESGGGLVQPGGSLRLSCAASGFTFRDYEMWWVRQAPGKGLERVSAINPQGTRTYYADSVKGRFTISRDNSKNTLYLQMNSLRAEDTAVYYCAKLPFRFSDRGQGTLVTVSSASTEPKSCDKTHTCPPCPAPEAEGAPSVFLFPPKPKDTLMISRTPEVTCVVVDVSHEDPEVKFNWYVDGVEVHNAKTKPREEQYNSTYRVVSVLTVLHQDWLNGKEYKCKVSNKALPAPIEKTISKAKGQPREPQVYTLPPSREEMTKNQVSLTCLVKGFYPSDIAVEWESNGQPENNYKTTPPVLDSDGSFFLYSKLTVDKSRWQQGNVFSCSVMHEALHNHYTQKSLSLSPGK
For the molecule B1, in test [1], the Kd was less than 1 nM.

B2: 3h56-269-IgG1.1f (Fc fusion)
chain: EVQLLESGGGLVQPGGSLRLSCAASGFTFRDYEMWWVRQAPGKGLERVSAINPQGTRTYYADSVKGRFTISRDNSKNTLYLQMNSLRAEDTAVYYCAKLPFRFSDRGQGTLVTVSSASTEPKSCDKTHTCPPCPAPEAEGAPSVFLFPPKPKDTLMISRTPEVTCVVVDVSHEDPEVKFNWYVDGVEVHNAKTKPREEQYNSTYRVVSVLTVLHQDWLNGKEYKCKVSNKALPSSIEKTISKAKGQPREPQVYTLPPSREEMTKNQVSLTCLVKGFYPSDIAVEWESNGQPENNYKTTPPVLDSDGSFFLYSKLTVDKSRWQQGNVFSCSVMHEALHNHYTQKSLSLSPGK
For the molecule B2, in test [1], the Kd was less than 1 nM.

B3: CD73.3-IgG1.1 (antibody, V domains shown)
VH: EVQLVESGGGLVQPGRSLRLSCAASGFTFDDYAMHWVRQAPGKGLEWVSGISWKSGSIGYADSVKGRFTISRDNAKNSLYLQMNSLRAEDTVLYYCVKGYYVILTGLDYWGQGTLVTVSS
VL: not shown
B3: the “% internalization, H2228” value in test [2] came out at 47%.
